Data on two molecules can be found in patent US20160347802A1 (MAX PLANCK GESELLSCHAFT ZUR FOERDERUNG DER WISSENSCHAFTEN E …, published 2016).

Sequences and labels used below:
T1: human DRAXIN 21 amino acid Netrin binding fragment, AVEXIS prey or bait protein (human)
T1 construct: Tested in both bait and prey orientations; also called human 21 amino acid DRAXIN fragment; derived 21 amino acid peptide; not shown: AVEXIS tag (rat Cd4d3+4 and prey or bait module)
T1 peptide: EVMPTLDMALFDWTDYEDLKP

T2: human Netrin-G2, AVEXIS protein (human, UniProt Q96CW9 18-507)
T2 construct: not shown: AVEXIS tag (bait or prey)
T2 sequence (looked up): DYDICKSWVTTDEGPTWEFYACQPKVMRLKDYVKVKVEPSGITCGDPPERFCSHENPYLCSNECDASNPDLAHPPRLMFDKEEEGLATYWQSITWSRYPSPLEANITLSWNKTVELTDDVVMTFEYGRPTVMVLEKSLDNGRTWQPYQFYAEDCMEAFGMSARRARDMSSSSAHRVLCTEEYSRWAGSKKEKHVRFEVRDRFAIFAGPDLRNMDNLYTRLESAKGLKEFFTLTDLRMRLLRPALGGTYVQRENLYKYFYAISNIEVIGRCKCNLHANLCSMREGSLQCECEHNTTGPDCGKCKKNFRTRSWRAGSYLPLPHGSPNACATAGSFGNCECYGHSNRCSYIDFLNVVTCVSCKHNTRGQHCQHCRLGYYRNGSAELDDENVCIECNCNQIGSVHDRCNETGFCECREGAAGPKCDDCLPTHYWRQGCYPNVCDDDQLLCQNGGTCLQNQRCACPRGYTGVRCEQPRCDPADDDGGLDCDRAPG

T3: human DRAXIN, AVEXIS prey or bait protein (human, UniProt Q8NBI3 26-349)
T3 sequence: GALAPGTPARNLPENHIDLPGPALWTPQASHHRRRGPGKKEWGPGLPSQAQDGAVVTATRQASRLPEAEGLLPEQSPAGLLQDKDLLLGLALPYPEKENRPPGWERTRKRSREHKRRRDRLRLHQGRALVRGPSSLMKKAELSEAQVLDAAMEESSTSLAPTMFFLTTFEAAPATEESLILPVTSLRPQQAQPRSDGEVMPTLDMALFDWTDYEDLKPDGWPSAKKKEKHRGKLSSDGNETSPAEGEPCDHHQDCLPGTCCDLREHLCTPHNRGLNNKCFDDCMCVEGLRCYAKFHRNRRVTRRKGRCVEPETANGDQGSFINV

B1: human Netrin-4, AVEXIS protein (ligand, UniProt Q9HB63 19-628, looked up)
chain: GLSGVAGVSSRCEKACNPRMGNLALGRKLWADTTCGQNATELYCFYSENTDLTCRQPKCDKCNAAYPHLAHLPSAMADSSFRFPRTWWQSAEDVHREKIQLDLEAEFYFTHLIVMFKSPRPAAMVLDRSQDFGKTWKPYKYFATNCSATFGLEDDVVKKGAICTSKYSSPFPCTGGEVIFKALSPPYDTENPYSAKVQEQLKITNLRVQLLKRQSCPCQRNDLNEEPQHFTHYAIYDFIVKGSCFCNGHADQCIPVHGFRPVKAPGTFHMVHGKCMCKHNTAGSHCQHCAPLYNDRPWEAADGKTGAPNECRTCKCNGHADTCHFDVNVWEASGNRSGGVCDDCQHNTEGQYCQRCKPGFYRDLRRPFSAPDACKPCSCHPVGSAVLPANSVTFCDPSNGDCPCKPGVAGRRCDRCMVGYWGFGDYGCRPCDCAGSCDPITGDCISSHTDIDWYHEVPDFRPVHNKSEPAWEWEDAQGFSALLHSGKCECKEQTLGNAKAFCGMKYSYVLKIKILSAHDKGTHVEVNVKIKKVLKSTKLKIFRGKRTLYPESWTDRGCTCPILNPGLEYLVAGHEDIRTGKLIVNMKSFVQHWKPSLGRKVMDILKRECK
notes: not shown: AVEXIS tag (bait or prey)
B2: human Netrin-G1, AVEXIS protein (ligand, UniProt Q9Y2I2 29-510, looked up)
chain: HYDLCKTQIYTEEGKVWDYMACQPESTDMTKYLKVKLDPPDITCGDPPETFCAMGNPYMCNNECDASTPELAHPPELMFDFEGRHPSTFWQSATWKEYPKPLQVNITLSWSKTIELTDNIVITFESGRPDQMILEKSLDYGRTWQPYQYYATDCLDAFHMDPKSVKDLSQHTVLEIICTEEYSTGYTTNSKIIHFEIKDRFAFFAGPRLRNMASLYGQLDTTKKLRDFFTVTDLRIRLLRPAVGEIFVDELHLARYFYAISDIKVRGRCKCNLHATVCVYDNSKLTCECEHNTTGPDCGKCKKNYQGRPWSPGSYLPIPKGTANTCIPSISSIGNCECFGHSNRCSYIDLLNTVICVSCKHNTRGQHCELCRLGYFRNASAQLDDENVCIECYCNPLGSIHDRCNGSGFCECKTGTTGPKCDECLPGNSWHYGCQPNVCDNELLHCQNGGTCHNNVRCLCPAAYTGILCEKLRCEEAGSCGS
notes: as for B1

Data set [1] concerns the target T4, human Netrin1, recombinant AVEXIS protein (biotinylated when immobilised) (human, UniProt O95631 25-604).
T4 construct: also called NTN1
Briefly: AVEXIS, prey on bait NTN1; white = No binding. An excerpt: (§1) The Matn4-bait served as an internal prey-protein control and was used for normalization of the A486 nm values; conditioned medium (CM) serves as negative control; n=3.

Data set [2] deals with T4, human Netrin1, recombinant AVEXIS …. Kind of data set: AVEXIS, prey NTN1 on bait NTN4.
From the text: as §1

The target in data set [3] is T1, human DRAXIN 21 amino acid Netrin …. Kind of data set: AVEXIS, prey on bait DRAXIN 21aa; white = No binding.
From the text: as §1

For data set [4], the target named is B2. Briefly: AVEXIS, prey on bait NTNG1; white = No binding.
From the text: as §1

Data set [5] concerns the target T2, human Netrin-G2, AVEXIS protein. Kind of data set: AVEXIS, prey on bait NTNG2; white = No binding.
From the text: as §1

Data set [6] deals with T5, biotinylated recombinant human UNC5B (human, UniProt Q8IZJ1 27-377).
T5 construct: Made in HEK293-6E and immobilised on an SA chip
Kind of data set: AVEXIS, prey on bait UNC5B; white = No binding.
From the text: as §1

Data set [7] deals with the molecule itself. Kind of data set: AVEXIS, prey on bait NTN4; white = No binding.
From the text: as §1

Data set [8] addresses T3, human DRAXIN, AVEXIS prey or bait …. Briefly: AVEXIS, prey on bait DRAXIN; white = No binding.
From the text: as §1

Data set [9] deals with the molecule itself. Briefly: AVEXIS, prey NTN4 on bait NTN4.
From the text: as §1

In data set [10] the target is T6, human Netrin-3, AVEXIS protein (human, UniProt O00634 28-580).
T6 construct: not shown: AVEXIS tag (bait or prey)
T6 sequence (O00634 28-580): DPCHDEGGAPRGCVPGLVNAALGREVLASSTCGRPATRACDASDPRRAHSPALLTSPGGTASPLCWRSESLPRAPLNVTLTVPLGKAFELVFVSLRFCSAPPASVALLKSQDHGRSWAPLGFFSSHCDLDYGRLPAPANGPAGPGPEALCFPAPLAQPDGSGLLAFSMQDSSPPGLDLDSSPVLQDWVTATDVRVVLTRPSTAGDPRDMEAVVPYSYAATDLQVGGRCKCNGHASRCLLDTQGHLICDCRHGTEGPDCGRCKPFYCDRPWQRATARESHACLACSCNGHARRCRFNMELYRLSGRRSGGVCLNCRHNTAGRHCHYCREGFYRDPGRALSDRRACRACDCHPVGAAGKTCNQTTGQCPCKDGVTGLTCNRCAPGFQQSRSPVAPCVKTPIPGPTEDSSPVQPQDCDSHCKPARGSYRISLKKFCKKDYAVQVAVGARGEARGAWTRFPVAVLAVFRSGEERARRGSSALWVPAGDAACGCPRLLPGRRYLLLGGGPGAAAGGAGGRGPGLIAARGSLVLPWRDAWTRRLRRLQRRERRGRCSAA
Kind of data set: AVEXIS, prey on bait NTN3; white = No binding.
From the text: as §1

Data set [11] addresses T7, Matn4 ECD, mono-biotinylated bait protein (positive control).
T7 construct: extracellular domain; also called Matn4-bait
Kind of data set: AVEXIS, prey on bait Matn4 (+), positive control for the prey; dark = Binding.
From the text: as §1

Data set [12] concerns the molecule itself. Kind of data set: AVEXIS, prey on bait NTNG1; white = No binding.
From the text: as §1

The target of data set [13] is T6, human Netrin-3, AVEXIS protein. Kind of data set: AVEXIS, prey NTN3 on bait NTNG1.
From the text: as §1

Data set [14] addresses T2, human Netrin-G2, AVEXIS protein. Kind of data set: AVEXIS, prey NTNG1 on bait NTNG2.
From the text: as §1

The target in data set [15] is B1. Briefly: AVEXIS, prey NTN4 on bait NTNG1.
From the text: as §1

In data set [16] the target is B1. Briefly: AVEXIS, prey on bait NTN4; white = No binding.
From the text: as §1

Data set [17] deals with the molecule itself. Briefly: AVEXIS, prey NTNG1 on bait NTNG1.
From the text: as §1

Data set [18] deals with T4, human Netrin1, recombinant AVEXIS …. Kind of data set: AVEXIS, prey NTN1 on bait NTNG1.
From the text: as §1

On to B1, for which the A486nm in [1] is 0.067; in [3] it was 0.067; in data set [4] it was 0.065; in data set [5], 0.063; in [6], 0.063; in data set [7], 0.068. Besides, the A486nm is 0.063 in [8], 0.065 in [10] and 0.235 in [11]. Besides, the binding result in [2] and in data set [9] was “no binding” each time.

Consider B2, for which the A486nm in data set [1] was determined as 0.062; in [3], 0.063; in data set [12] it was 0.062; in data set [5] it was 0.061; in [6], 0.061; in [16] it was 0.066. For the same molecule, the A486nm in data set [8] was 0.061; in data set [10], 0.064; in data set [11], 0.254. The binding result in data set [13], in [14], in [15], in data set [17] and in data set [18] was “no binding” throughout.
